Source: PMC8304084, “A Concerted Action of UBA5 C-Terminal Unstructured Regions Is Important for Transfer of Activated UFM1 to UFC1” (International Journal of Molecular Sciences, 2021)
Entries after “also recorded” stand apart in the source; their conditions may differ. Where no end group is shown, it is not given here.

Key:
UFC1 [1] = molecular target: T1, UFC1 (Homo sapiens, UniProt Q9Y3C8); experiment: In vitro thioester formation (ufmylation) assay, UFC1~UFM1 conjugate; type: biochemical; conditions: for effect on UFC1~UFM1 conjugation (in words): 1 mM ATP, 22 °C, peptides added to UBA5 AD^1–330 where applicable; for UFC1~UFM1 conjugate fraction (in words): ATP reduced to 25 µM, compared to wild type peptide
T1 construct: Full length UFC1, residues 1–167; modified ubiquitin tag (Ub19) with TEV site (N, cleaved yes); made in house; host or cells: E. coli T7 Express
T1 sequence (Q9Y3C8 1-167): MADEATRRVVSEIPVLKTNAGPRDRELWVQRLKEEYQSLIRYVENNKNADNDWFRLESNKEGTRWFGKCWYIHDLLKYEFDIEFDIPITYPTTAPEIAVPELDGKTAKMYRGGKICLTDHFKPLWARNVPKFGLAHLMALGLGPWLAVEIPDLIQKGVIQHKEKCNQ
Method: First, we analyzed the effect of the UBA5 C-terminus on UFM1 transfer to UFC1 with an in vitro thioester formation assay (Figure 1B–E).
Ufmylation reaction assays were adopted from work of Xie. Briefly, 70 µM UFM1, 20 µM UFC1 and 20 µM of different UBA5 constructs were mixed in reaction buffer (50 mM HEPES pH = 7.5, 100 mM NaCl, 5 mM MgCl2). After starting the reaction with addition of 1 mM ATP, the reaction mix was incubated at 22 °C for the desired time. To quench the reaction and prepare electrophoretic samples, 1 µL of the reaction mix was added to 99 µL 1x non-reducing SDS loading buffer and frozen in liquid nitrogen. Sample content was visualized by sodium dodecyl sulfate polyacrylamide gel electrophoresis (SDS-PAGE). The transfer to polyvinylidene difluoride (PVDF) membrane was performed via a Trans-Blot® Turbo™ Transfer System (Bio-Rad, München, Germany). After transfer the membrane was blocked with TBST (Tris-buffered saline with Tween20 buffer, 20 mM Tris, 150 mM NaCl and 0.1% TWEEN 20) containing 5% w/v nonfat dry milk for 1 h, followed by α-UFC1 antibody incubation over night at 4 °C (ab189251 abcam, 1:10,000 in TBST containing 5% w/v nonfat dry milk). After washing with TBST the membrane was incubated with secondary antibody (anti-rabbit-HRP) for 1 h at RT and again washed with TBST. Detection was performed by addition of ECL solution. For quantification of UFC1 ufmylation coloc2 software implemented in ImageJ was used.

UFC1 [2] = molecular target: T1, UFC1; experiment: ITC, UBA5 constructs vs UFC1; type: binding; conditions: for Kd / ΔG / −T*ΔS / ΔS / KA*10^−6 / ΔH: ITC, 25 °C; for Kd / ΔH: VP-ITC, peptide ~400 µM titrated into 20–25 µM UFC1, 25 mM HEPES pH 7.5, 100 mM NaCl, single ITC profile; for Kd / ΔS / ΔH: one-site model; for N: ITC stoichiometry; for N / ΔG / −T*ΔS / ΔS / KA*10^−6: peptide vs UFC1; for N / KA*10^−6 / ΔH: ± = fitting error; for ΔS: single profile; for KA*10^−6: value is KA × 10^−6
Text: (§1) To understand how the UBA5 C-terminus participates in the ufmylation cascade, we performed isothermal titration calorimetry (ITC) experiments, in which we titrated UBA5 C-terminal peptides (see Table 1) to the UBA5 AD, UFC1, UFM1 and representative LC3/GABARAP proteins (Figure 2A, Supplementary Figure S2A–D and Table 2).
To investigate if conjugation of UFM1 to the UBA5 catalytic cysteine (C250) affects the UFC1:UBA5 interactions, we prepared full length UBA5 C250K mutant and stably conjugated UFM1 to it as reported before for a number of ubiquitin-specific E2 enzymes. We compared the UFC1 spectra after addition of a twofold molar excess of FL^1–404 and FL^1–404 C250K~UFM1 constructs (Supplementary Figure S5C).
(§2) All proteins and peptides were expressed in E.Coli T7 Express (New England Biolabs GmbH, Frankfurt, Germany) cells in LB or M9 (to obtain ^15N- and ^13C,^15N-labeled polypeptides) media according to the protocol described in [33, 36]. For protein purification, bacterial cell pellets were resuspended in lysis buffer (50 mM Tris-HCl pH = 7.5, 100 mM NaCl, 5% glycerol, 5 mM PIC (protease inhibitor cocktail)) and lysed via sonication (TT13 Sonotrode, 40% amplitude, for 6 × 1 min with a 0.5/0.5-s pulse). Lysates were centrifuged for 45 min at 17,000× g at 4 °C. Supernatants were loaded onto a His Trap Fast Flow 5 mL column (GE Healthcare, München, Germany) equilibrated in loading buffer (50 mM Tris-HCl pH = 8.0, 250 mM NaCl, 1% glycerol, 20 mM imidazole). The column was washed with loading buffer for 5–10 CV and protein was eluted with elution buffer (50 mM Tris-HCl pH = 8, 250 mM NaCl, 1% glycerol, 400 mM imidazole). Simultaneous TEV cleavage (1 mg TEV protease was added to 100 mg peptides/proteins) and buffer exchange to loading buffer via dialysis was performed over night at 4 °C. After reverse IMAC, proteins were concentrated with conical concentrators (Millipore Merck, Darmstadt, Germany) and loaded on a Superdex 10/60 75 or 200 column (GE Healthcare, München, Germany) for further purification and equilibration with ITC/NMR buffer (25 mM HEPES pH = 7.5, 100 mM NaCl). For structural NMR spectroscopy, buffer containing 50 mM Tris-HCl pH = 7.5, 100 mM NaCl was used. Prior to NMR experiments, TCEP and protease inhibitors cocktail were added to the samples to final concentrations 1 and 5 mM, respectively. Purified peptides and protein were concentrated and stored at −80 °C. The protein and peptide concentrations were calculated from the UV absorption at 280 nm by Nanodrop spectrophotometer (Thermo Scientific, Langenselbold, Germany).
(§3) All ITC experiments were performed at 25 °C using a VP-ITC microcalorimeter (Malvern Panalytical Ltd., Malvern, UK). Peptides in concentration of ~400 µM were titrated into 20–25 µM solutions of corresponding binding partner at a stirring speed of 307 rpm. The raw data were corrected on the dilution heat of peptides obtained in independent experiment (titration of the peptide in syringe into the ITC/NMR buffer in the measuring cell). Pre-titration delay was set to 180 s, interval between titration steps was experimentally adjusted to avoid kinetic contribution to the observed heat effects and set to 200 s. A single ITC profile was collected for each type of interaction. The ITC data were analyzed based on a “one-site” binding model with MicroCal ITC software implemented in Origin 7.0.

UFM1 = molecular target: T2, UFM1 (Homo sapiens, UniProt P61960); experiment: ITC, UBA5 peptides vs UFM1; type: binding; conditions: 25 °C; for ΔG / −T*ΔS: vs UFM1; for ΔS: vs UFM1, one-site model, single profile; for KA*10^−6: vs UFM1, value is KA × 10^−6, ± = fitting error
T2 construct: Full length UFM1, residues 2–83; modified ubiquitin tag (Ub19) with TEV site (N, cleaved yes); made in house; host or cells: E. coli T7 Express
Text: as §1, §2, §3

GABARAPL2 = molecular target: T3, GABARAPL2 (Homo sapiens, UniProt P60520); experiment: ITC, UBA5 peptides vs GABARAPL2; type: binding; conditions: for affinity increase to GABARAPL2 vs wild type peptide / ΔG / ΔS / −T*ΔS / KA*10^−6: 25 °C; for ΔG / ΔS / −T*ΔS: vs GABARAPL2; for KA*10^−6: vs GABARAPL2, value is KA × 10^−6, ± = fitting error; for affinity change, GABARAPL2: A371 mutants of R1-R2-R3^325–404
T3 construct: modified ubiquitin tag (Ub19) with TEV site (N, cleaved yes); made in house; host or cells: E. coli T7 Express
Text: as §1, §2, §3

LC3B = molecular target: T4, LC3B (Homo sapiens, UniProt Q9GZQ8); experiment: ITC, UBA5 peptides vs LC3B; type: binding; conditions: for affinity increase to LC3B vs wild type peptide / ΔG / ΔS / −T*ΔS / KA*10^−6: 25 °C; for ΔG / ΔS / −T*ΔS / KA*10^−6: vs LC3B; for KA*10^−6: value is KA × 10^−6, ± = fitting error; for affinity change, LC3B: A371 mutants of R1-R2-R3^325–404
T4 construct: LC3B, residues 5–120; ubiquitin tag Ub3 (vector pETm60_Ub3) (cleaved yes); made in house; host or cells: E. coli T7 Express
Text: as §1, §2, §3

T3 sequence (P60520 3-116): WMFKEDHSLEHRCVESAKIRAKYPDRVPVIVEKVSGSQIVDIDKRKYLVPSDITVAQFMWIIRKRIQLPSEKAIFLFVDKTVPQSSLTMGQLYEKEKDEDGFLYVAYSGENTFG
T2 sequence (P61960 2-83): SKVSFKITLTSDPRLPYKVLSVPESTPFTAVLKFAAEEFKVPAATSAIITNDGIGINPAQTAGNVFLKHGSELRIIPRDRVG

| Substance | Kd (UFC1 [2]) | effect on UFC1~UFM1 conjugation (in words) (UFC1 [1]) | ΔG (UFM1) | −T*ΔS (UFM1) | ΔS (UFM1) | KA*10^−6 (UFM1) | UFC1~UFM1 conjugate fraction (in words) (UFC1 [1]) | affinity increase to GABARAPL2 vs wild type peptide (GABARAPL2) | ΔG (GABARAPL2) | ΔS (GABARAPL2) | −T*ΔS (GABARAPL2) | KA*10^−6 (GABARAPL2) | affinity change, GABARAPL2 (GABARAPL2) | N (UFC1 [2]) | ΔG (UFC1 [2]) | −T*ΔS (UFC1 [2]) | ΔS (UFC1 [2]) | KA*10^−6 (UFC1 [2]) | ΔH (UFC1 [2]) | affinity increase to LC3B vs wild type peptide (LC3B) | further results |
| --- | --- | --- | --- | --- | --- | --- | --- | --- | --- | --- | --- | --- | --- | --- | --- | --- | --- | --- | --- | --- | --- |
| GABARAPL2: GABARAPL2, residues 3–116 |  |  |  |  |  |  |  |  |  |  |  |  |  |  |  |  |  |  |  |  | effect of GABARAPL2 on UFC1~UFM1 conjugation (UFC1 [1]; high concentration of GABARAPL2 added to ufmylation assay): could efficiently prohibit the UFC1~UFM1 conjugation |
| GAMEDSGESLEDLMAKMKNM [R3^388–404] | 10 µM |  |  |  |  |  |  |  |  |  |  |  |  |  |  |  |  |  |  |  |  |
| GAMGPVPDLPEGITVAYTIPKKQEDSVTELTVEDSGESLEDLMAKMKNM [R2-R3^359–404] | 2.7 µM |  |  |  |  |  |  |  |  |  |  |  |  |  |  |  |  |  |  |  |  |
| H-GAMGPVPDLPEGITVAYTIPK-OH [R2^359–376] |  | virtually no effect |  |  |  |  |  |  |  |  |  |  |  |  |  |  |  |  |  |  | interaction / affinity to UFC1 (in words) (UFC1 [2]; ITC and NMR titration, listed as R2): no direct interactions; also recorded: does not interact with UFC1 |
| R1-R2-R3^325–404 A371E: UBA5 C-terminal part with A371E mutant (res. 325–404) | 1.6 µM | nearly the same trans-thioesterification efficiency compared to wild type | -6.86 kcal/mol | 4.56 kcal/mol | −15.3 cal mol^−1 K^−1 | 0.11 ± 0.01 M^−1 | reduction of the UFC1~UFM1 conjugate fraction | ~ 3 fold | -9.95 kcal/mol | 7.23 cal mol^−1 K^−1 | -2.16 kcal/mol | 19.60 ± 2.57 M^−1 | some increase in affinity | 1.03 ± 0.005 | -7.88 kcal/mol | -0.11 kcal/mol | 0.36 cal mol^−1 K^−1 | 0.60 ± 0.02 M^−1 | -7.78 ± 0.05 kcal/mol | ~ 7 fold | effect on UFC1~UFM1 conjugation (in words) (UFC1 [1]; listed as A371E): did not affect significantly the formation of the UFC1~UFM1 conjugate; ΔG (LC3B): -8.49 kcal/mol; ΔS (LC3B): 15.3 cal mol^−1 K^−1; −T*ΔS (LC3B): -4.56 kcal/mol; KA*10^−6 (LC3B): 1.66 ± 0.12 M^−1; affinity change, LC3B (LC3B): some increase in affinity |
| R1-R2-R3^325–404 A371T: UBA5 C-terminal part with A371T mutant (res. 325–404) | 1.8 µM | nearly the same trans-thioesterification efficiency compared to wild type | -7.02 kcal/mol | 3.96 kcal/mol | −13.3 cal mol^−1 K^−1 | 0.14 ± 0.01 M^−1 | reduction of the UFC1~UFM1 conjugate fraction | ~ 3 fold | -9.89 kcal/mol | 7.76 cal mol^−1 K^−1 | -2.31 kcal/mol | 17.90 ± 3.75 M^−1 | some increase in affinity | 1.03 ± 0.008 | -7.82 kcal/mol | 0.06 kcal/mol | −0.19 cal mol^−1 K^−1 | 0.54 ± 0.03 M^−1 | -7.88 ± 0.08 kcal/mol | ~ 3 fold | effect on UFC1~UFM1 conjugation (in words) (UFC1 [1]; listed as A371T): did not affect significantly the formation of the UFC1~UFM1 conjugate; ΔG (LC3B): -8.02 kcal/mol; ΔS (LC3B): 14.3 cal mol^−1 K^−1; −T*ΔS (LC3B): -4.26 kcal/mol; KA*10^−6 (LC3B): 0.76 ± 0.04 M^−1; affinity change, LC3B (LC3B): some increase in affinity |
